Literature values in article PMC11426987.
Like-named read-outs stand apart in the source and are kept apart here.

Tests used:
[1] = target: protein S (Homo sapiens) (UniProt P07225)
[2] = target: protein S (Homo sapiens) (UniProt P07225); remark: listed apart in the source

UniProt P07225, sequence (P07225 42-676): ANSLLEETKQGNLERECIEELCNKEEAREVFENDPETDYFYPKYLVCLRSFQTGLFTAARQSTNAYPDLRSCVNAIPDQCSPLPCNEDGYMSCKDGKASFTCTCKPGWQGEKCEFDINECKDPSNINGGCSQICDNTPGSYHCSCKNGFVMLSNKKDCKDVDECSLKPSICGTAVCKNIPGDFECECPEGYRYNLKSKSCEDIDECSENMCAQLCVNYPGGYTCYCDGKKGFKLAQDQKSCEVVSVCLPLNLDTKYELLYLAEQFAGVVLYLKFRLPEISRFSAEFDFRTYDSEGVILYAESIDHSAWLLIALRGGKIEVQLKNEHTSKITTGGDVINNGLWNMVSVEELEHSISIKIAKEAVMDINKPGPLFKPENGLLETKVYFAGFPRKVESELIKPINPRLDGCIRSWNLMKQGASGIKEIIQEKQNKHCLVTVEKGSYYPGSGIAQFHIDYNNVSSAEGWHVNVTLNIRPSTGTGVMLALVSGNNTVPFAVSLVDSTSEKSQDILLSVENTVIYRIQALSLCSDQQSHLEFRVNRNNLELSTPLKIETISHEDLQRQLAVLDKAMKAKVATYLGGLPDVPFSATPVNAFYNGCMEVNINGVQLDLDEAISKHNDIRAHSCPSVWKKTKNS

Substance	Kd [1] [nM]	Kd [2] [nM]
TFPI (from UniProt P10646)	> 1000	–
TFPIα (from UniProt P10646)	–	20
